Experimental data published in US20210292393A1.

Molecular target: SARS-CoV-2 full length spike protein, V483A mutant (SARS-CoV-2), P0DTC2
Details: remark: other sources report otherwise

B1: antibody 262 (antibody, V domains shown)
VH: QVQLVESGGGVVQPGRSLRLSCAASGFTFSSYAMHWVRQAPGKGLEWVAVISYDGSNKYYADSVKGRFTISRDNSKNTLYLQMNSLRAEDTAVYYCARDGGELLWFGELDYYGMDVWGQGTTVTVSS
VL: SYELTQPSSVSVSPGQTARITCSGDVLAKKYARWFQQKPGQAPVLVIYKDSERPSGIPERFSGSSSGTTVTLTISGAQVEDEADYYCYSAADNNRGVFGGGTKLTVL
- median fluorescence intensity, fold over isotype control (fold over isotype): 1.63
